Measurements published in the supplement of paper PMC10567573.

B1: EPB41L3 (parent)
chain: SDYISEFRFAPNHTKELEDKVIEL

Variants of: B1
Test: protein stability index of a GFP-peptide fusion (GPS, HEK-293T) (PSI 1-6); higher = more stable
Conditions: c terminus: a fixed tail appended
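Note: lentivirally expressed fusions sorted by FACS into six bins by GFP to DsRed ratio, PSI derived from sequencing read proportions per bin multiplied by bin number.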

Variant	protein stability index
SDYISEFRFAPNHTKECEDKVIEL	2.05
SDYISEFRFAPNHTKEIEDKVIEL	2.37
SDYISEFRFAPNHTKEKEDKVIEL	2.07
SDYISEFRFAPNHTKEMEDKVIEL	2.47
SDYISEFRFAPNHTKEREDKVIEL	1.27
SDYISEFRFAPNHTKEYEDKVIEL	2.59
SDYISEFRFAPNHTKEWEDKVIEL	1.77
SDYISEFRFAPNHTKEDEDKVIEL	2.51
SDYISEFRFAPNHTKEFEDKVIEL	2.86
SDYISEFRFAPNHTKEQEDKVIEL	2.18
SDYISEFRFAPNHTKEGEDKVIEL	1.97
SDYISEFRFAPNHTKEHEDKVIEL	1.84
SDYISEFRFAPNHTKENEDKVIEL	2.17
SDYISEFRFAPNHTKETEDKVIEL	1.98
SDYISEFRFAPNHTKEAEDKVIEL	1.87
SDYISEFRFAPNHTKESEDKVIEL	1.84
SDYISEFRFAPNHTKEPEDKVIEL	1.96
SDYISEFRFAPNHTKEEEDKVIEL	2.32
SDYISEFRFAPNHTKEVEDKVIEL	2.68
SDYISEFRFAPNHTKELEDKRIEL	1.78
SDYISEFRFAPNHTKELEDKNIEL	2.38
SDYISEFRFAPNHTKELEDKGIEL	2.37
SDYISEFRFAPNHTKELEDKIIEL	2.22
SDYISEFRFAPNHTKELEDKHIEL	1.85

Variant	protein stability index
SDYISEFRFAPNHTKELEDKCIEL	1.88
SDYISEFRFAPNHTKELEDKAIEL	2.31
SDYISEFRFAPNHTKELEDKSIEL	2.05
SDYISEFRFAPNHTKELEDKKIEL	2.15
SDYISEFRFAPNHTKELEDKWIEL	2.14
SDYISEFRFAPNHTKELEDKMIEL	3.45
SDYISEFRFAPNHTKELEDKTIEL	2.18
SDYISEFRFAPNHTKELEDKPIEL	1.94
SDYISEFRFAPNHTKELEDKFIEL	3.22
SDYISEFRFAPNHTKELEDKEIEL	2.54
SDYISEFRFAPNHTKELEDKQIEL	1.99
SDYISEFRFAPNHTKELEDKLIEL	2.48
SDYISEFRFAPNHTKELEDKDIEL	2.96
SDYISEFRFAPNHTKELEDKYIEL	2.14
SDYISEFRFAPNHTKELQDKVIEL	2.42
SDYISEFRFAPNHTKELTDKVIEL	1.73
SDYISEFRFAPNHTKELWDKVIEL	1.56
SDYISEFRFAPNHTKELIDKVIEL	2.19
SDYISEFRFAPNHTKELFDKVIEL	1.8
SDYISEFRFAPNHTKELGDKVIEL	2.53
SDYISEFRFAPNHTKELNDKVIEL	1.81
SDYISEFRFAPNHTKELDDKVIEL	1.49
SDYISEFRFAPNHTKELPDKVIEL	1.47
SDYISEFRFAPNHTKELHDKVIEL	2.77

Variant	protein stability index
SDYISEFRFAPNHTKELLDKVIEL	1.77
SDYISEFRFAPNHTKELMDKVIEL	1.8
SDYISEFRFAPNHTKELKDKVIEL	2.08
SDYISEFRFAPNHTKELYDKVIEL	1.77
SDYISEFRFAPNHTKELVDKVIEL	2.07
SDYISEFRFAPNHTKELRDKVIEL	2.34
SDYISEFRFAPNHTKELSDKVIEL	2.32
SDYISEFRFAPNHTKELADKVIEL	2.05
SDYISEFRFAPNHTKELCDKVIEL	1.44
SDYISEFRFAPNHTKLLEDKVIEL	2.37
SDYISEFRFAPNHTKHLEDKVIEL	2.65
SDYISEFRFAPNHTKWLEDKVIEL	2.07
SDYISEFRFAPNHTKILEDKVIEL	2.08
SDYISEFRFAPNHTKDLEDKVIEL	1.82
SDYISEFRFAPNHTKGLEDKVIEL	1.81
SDYISEFRFAPNHTKPLEDKVIEL	1.57
SDYISEFRFAPNHTKMLEDKVIEL	3.24
SDYISEFRFAPNHTKNLEDKVIEL	1.76
SDYISEFRFAPNHTKTLEDKVIEL	1.54
SDYISEFRFAPNHTKFLEDKVIEL	2.81
SDYISEFRFAPNHTKYLEDKVIEL	2.56
SDYISEFRFAPNHTKRLEDKVIEL	2.66
SDYISEFRFAPNHTKKLEDKVIEL	1.77
SDYISEFRFAPNHTKCLEDKVIEL	2.17

Variant	protein stability index
SDYISEFRFAPNHTKSLEDKVIEL	2.42
SDYISEFRFAPNHTKVLEDKVIEL	1.89
SDYISEFRFAPNHTKQLEDKVIEL	2.3
SDYISEFRFAPNHTKELEDKVDEL	2.88
SDYISEFRFAPNHTKELEDKVQEL	2.92
SDYISEFRFAPNHTKELEDKVSEL	3.18
SDYISEFRFAPNHTKELEDKVMEL	2.31
SDYISEFRFAPNHTKELEDKVCEL	2.19
SDYISEFRFAPNHTKELEDKVHEL	2.55
SDYISEFRFAPNHTKELEDKVYEL	2.29
SDYISEFRFAPNHTKELEDKVAEL	3.26
SDYISEFRFAPNHTKELEDKVLEL	2.28
SDYISEFRFAPNHTKELEDKVKEL	2.51
SDYISEFRFAPNHTKELEDKVNEL	2.74
SDYISEFRFAPNHTKELEDKVWEL	2.45
SDYISEFRFAPNHTKELEDKVGEL	2.79
SDYISEFRFAPNHTKELEDKVTEL	2.56
SDYISEFRFAPNHTKELEDKVVEL	2.58
SDYISEFRFAPNHTKELEDKVFEL	1.74
SDYISEFRFAPNHTKELEDKVPEL	2.58
SDYISEFRFAPNHTKELEDKVREL	3.03
SDYISEFRFAPNHTKELEDKVEEL	2.94
